According to IntAct's records for PubMed 30530185:

B1: Coiled-coil-helix-coiled-coil-helix domain-containing protein 2 (Homo sapiens), Q9Y6H1 (parent)
chain: MPRGSRSRTSRMAPPASRAPQMRAAPRPAPVAQPPAAAPPSAVGSSAAAPRQPGLMAQMATTAAGVAVGSAVGHTLGHAITGGFSGGSNAEPARPDITYQEPQGTQPAQQQQPCLYEIKQFLECAQNQGDIKLCEGFNEVLKQCRLANGLA
partner: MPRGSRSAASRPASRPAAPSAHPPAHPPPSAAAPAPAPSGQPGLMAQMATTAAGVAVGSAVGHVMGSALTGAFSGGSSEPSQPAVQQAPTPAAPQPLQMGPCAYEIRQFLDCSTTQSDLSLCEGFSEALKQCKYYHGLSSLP

Variants of: B1
Conditions: with chc10_human CHCHD10, Q8WYQ3

Row | Variant | effect of a mutation on the interaction
1 | T61I | increasing interaction strength
